Laboratory results taken from the supplement of paper PMC10065799, “High-throughput profiling of sequence recognition by tyrosine kinases and SH2 domains using bacterial peptide display” (eLife, 2023).

How the values were obtained:
Fes = Fes (UniProt P07332); assay: phosphorylation enrichment, bacterial display (enrichment ratio); higher = better substrate or ligand; peptides without Tyr show the background
Fyn = Fyn (UniProt P06241); assay: as above
Jak2 = Jak2 (UniProt O60674); assay: as above
EPHB1 = EPHB1 (UniProt P54762); assay: as above
AncSZ = assay: as above
EPHB2 = EPHB2 (UniProt P29323); assay: as above
EPHB2, sequence (P29323 whole entry, looked up): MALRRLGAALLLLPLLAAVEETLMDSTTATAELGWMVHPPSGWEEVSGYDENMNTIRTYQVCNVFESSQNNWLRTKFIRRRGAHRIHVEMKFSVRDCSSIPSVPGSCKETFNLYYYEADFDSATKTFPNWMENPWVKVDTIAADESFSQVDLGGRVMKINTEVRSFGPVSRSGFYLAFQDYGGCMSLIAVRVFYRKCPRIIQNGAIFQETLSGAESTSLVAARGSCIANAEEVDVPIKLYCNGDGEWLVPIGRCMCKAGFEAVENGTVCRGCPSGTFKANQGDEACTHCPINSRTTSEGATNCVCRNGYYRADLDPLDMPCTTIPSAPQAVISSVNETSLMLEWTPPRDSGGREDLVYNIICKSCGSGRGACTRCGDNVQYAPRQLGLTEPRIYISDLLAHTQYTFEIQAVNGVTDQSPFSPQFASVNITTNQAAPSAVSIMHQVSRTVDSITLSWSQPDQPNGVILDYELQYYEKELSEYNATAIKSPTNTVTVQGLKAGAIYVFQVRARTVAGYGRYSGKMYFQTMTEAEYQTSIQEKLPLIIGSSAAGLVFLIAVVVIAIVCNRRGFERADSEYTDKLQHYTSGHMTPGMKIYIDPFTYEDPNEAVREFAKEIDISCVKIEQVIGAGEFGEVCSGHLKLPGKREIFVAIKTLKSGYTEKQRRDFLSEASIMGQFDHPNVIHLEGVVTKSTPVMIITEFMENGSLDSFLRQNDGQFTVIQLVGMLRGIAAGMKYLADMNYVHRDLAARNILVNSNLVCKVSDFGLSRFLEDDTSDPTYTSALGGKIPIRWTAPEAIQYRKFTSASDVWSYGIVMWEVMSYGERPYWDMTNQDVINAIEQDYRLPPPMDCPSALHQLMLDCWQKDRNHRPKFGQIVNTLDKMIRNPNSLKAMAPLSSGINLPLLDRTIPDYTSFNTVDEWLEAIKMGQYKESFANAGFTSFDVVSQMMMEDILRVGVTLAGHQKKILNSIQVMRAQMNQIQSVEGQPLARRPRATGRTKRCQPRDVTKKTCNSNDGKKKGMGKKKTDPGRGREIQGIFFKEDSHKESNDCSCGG

MERTK = MERTK (UniProt Q12866); assay: as above
MERTK, sequence (Q12866 whole entry, looked up): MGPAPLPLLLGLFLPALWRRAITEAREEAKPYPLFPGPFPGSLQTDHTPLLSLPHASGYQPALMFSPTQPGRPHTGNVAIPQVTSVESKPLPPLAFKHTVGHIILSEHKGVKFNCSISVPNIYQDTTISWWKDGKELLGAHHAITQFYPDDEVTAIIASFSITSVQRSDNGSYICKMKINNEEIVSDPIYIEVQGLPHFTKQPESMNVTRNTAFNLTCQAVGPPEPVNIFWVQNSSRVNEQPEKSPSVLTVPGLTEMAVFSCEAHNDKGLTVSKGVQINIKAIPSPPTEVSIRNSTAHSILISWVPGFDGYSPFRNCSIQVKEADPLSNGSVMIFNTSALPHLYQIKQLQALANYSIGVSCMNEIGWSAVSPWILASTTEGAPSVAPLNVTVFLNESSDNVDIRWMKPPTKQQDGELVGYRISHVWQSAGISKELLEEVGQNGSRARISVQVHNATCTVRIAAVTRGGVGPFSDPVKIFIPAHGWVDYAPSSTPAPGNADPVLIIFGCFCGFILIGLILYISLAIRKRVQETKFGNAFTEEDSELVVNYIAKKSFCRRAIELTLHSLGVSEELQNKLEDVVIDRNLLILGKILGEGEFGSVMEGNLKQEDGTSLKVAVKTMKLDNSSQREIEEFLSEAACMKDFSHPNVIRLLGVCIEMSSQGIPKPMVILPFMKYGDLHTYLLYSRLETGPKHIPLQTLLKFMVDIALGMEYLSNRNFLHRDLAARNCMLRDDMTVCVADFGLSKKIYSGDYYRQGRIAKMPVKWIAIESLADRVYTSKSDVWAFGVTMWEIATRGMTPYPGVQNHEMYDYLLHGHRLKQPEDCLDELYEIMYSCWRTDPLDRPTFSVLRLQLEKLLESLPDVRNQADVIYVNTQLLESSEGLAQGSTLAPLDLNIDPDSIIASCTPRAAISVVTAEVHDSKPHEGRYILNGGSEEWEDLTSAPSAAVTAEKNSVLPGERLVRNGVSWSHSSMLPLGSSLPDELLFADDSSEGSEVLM

c-Src = assay: as above
Fer (mouse) = assay: as above
FGFR1 = FGFR1 (UniProt P11362); assay: as above
FGFR1, sequence (P11362 whole entry, looked up): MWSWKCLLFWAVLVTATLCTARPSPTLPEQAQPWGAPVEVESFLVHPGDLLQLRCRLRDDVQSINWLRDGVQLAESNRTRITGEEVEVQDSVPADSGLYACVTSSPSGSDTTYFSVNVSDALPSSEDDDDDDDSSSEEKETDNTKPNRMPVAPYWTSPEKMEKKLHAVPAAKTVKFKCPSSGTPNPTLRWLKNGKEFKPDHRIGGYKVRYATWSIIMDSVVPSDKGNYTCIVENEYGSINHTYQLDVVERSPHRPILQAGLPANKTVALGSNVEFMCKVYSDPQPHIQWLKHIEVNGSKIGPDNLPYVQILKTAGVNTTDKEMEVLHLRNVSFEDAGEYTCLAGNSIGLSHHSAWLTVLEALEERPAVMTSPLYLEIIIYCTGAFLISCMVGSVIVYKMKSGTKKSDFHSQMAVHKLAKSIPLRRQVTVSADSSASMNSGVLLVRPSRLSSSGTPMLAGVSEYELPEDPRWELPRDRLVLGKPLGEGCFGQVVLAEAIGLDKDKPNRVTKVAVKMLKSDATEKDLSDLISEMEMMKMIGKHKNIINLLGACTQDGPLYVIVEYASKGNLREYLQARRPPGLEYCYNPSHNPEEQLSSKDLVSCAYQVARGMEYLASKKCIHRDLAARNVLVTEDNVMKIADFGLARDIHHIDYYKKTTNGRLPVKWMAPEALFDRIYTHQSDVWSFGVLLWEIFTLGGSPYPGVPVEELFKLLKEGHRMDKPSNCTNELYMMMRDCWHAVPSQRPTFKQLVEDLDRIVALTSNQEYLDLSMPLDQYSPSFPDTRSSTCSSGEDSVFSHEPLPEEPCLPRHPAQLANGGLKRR

FGFR3 = FGFR3 (UniProt P22607); assay: as above
FGFR3, sequence (P22607 whole entry, looked up): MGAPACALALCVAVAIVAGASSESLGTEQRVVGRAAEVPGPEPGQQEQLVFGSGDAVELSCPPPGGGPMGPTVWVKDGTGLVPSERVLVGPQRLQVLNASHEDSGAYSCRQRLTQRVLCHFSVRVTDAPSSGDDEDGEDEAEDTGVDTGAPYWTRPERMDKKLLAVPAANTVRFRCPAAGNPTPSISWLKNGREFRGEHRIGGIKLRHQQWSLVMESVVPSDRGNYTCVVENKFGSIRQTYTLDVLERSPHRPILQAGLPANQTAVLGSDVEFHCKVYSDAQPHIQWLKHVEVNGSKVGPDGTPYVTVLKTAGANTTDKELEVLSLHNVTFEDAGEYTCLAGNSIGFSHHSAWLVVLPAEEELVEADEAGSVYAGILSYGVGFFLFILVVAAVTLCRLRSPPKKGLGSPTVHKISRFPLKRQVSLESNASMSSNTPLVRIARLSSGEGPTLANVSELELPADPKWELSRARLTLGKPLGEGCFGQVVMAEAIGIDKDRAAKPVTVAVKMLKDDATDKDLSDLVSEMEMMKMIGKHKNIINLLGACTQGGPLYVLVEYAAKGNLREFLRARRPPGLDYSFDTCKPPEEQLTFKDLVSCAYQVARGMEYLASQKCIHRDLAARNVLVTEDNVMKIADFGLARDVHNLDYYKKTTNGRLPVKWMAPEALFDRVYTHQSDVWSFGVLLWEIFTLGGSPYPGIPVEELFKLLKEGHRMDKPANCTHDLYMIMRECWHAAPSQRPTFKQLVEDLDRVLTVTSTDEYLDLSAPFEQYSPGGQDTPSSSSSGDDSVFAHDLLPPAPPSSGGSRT

Hck = Hck (UniProt P08631); assay: as above
Hck, sequence (P08631 whole entry, looked up): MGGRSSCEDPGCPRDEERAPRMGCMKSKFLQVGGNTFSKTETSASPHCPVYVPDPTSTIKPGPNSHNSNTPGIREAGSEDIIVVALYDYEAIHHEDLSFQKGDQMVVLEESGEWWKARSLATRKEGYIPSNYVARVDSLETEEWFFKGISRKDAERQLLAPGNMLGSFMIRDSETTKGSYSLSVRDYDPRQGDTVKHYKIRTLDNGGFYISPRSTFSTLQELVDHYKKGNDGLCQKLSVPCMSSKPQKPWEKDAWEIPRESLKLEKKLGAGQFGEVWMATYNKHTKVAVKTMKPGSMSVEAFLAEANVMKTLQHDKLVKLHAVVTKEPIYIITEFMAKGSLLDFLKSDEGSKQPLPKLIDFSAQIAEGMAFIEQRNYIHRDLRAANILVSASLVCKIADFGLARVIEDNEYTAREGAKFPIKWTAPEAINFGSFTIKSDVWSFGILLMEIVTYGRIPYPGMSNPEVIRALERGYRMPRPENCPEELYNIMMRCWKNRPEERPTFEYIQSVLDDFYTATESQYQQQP

c-Abl (mouse) = assay: as above
Grb2 SH2 = Grb2 SH2 (UniProt P62993); assay: SH2 binding enrichment of the phosphorylated peptide, bacterial display (enrichment ratio); higher = better substrate or ligand; peptides without Tyr show the background
Grb2 SH2, sequence (P62993 whole entry, looked up): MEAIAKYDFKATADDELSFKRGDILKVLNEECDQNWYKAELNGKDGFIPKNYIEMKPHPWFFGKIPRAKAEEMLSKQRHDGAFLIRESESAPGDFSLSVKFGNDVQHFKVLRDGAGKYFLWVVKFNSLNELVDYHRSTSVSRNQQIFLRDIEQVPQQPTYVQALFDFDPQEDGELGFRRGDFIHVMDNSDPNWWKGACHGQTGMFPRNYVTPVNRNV

c-Src SH2 = assay: as above
SHP2-C SH2 = assay: as above
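For SH2 binding enrichment of the phosphorylated peptide, bacterial display in this document: peptide library displayed on the E. coli surface as eCPX fusions, selected cells deep-sequenced, score is each peptide's frequency after selection divided by its frequency in the input.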
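For phosphorylation enrichment, bacterial display in this document: 11-residue human phosphosite peptides and single-mutation variants displayed on the E. coli surface, counted by deep sequencing, each peptide's frequency after selection divided by its frequency in the unselected input library; frequency after pTyr selection over input frequency; kinase dosed for 20-30% of maximal phosphorylation in three min.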

Fyn, sequence (P06241 whole entry, looked up): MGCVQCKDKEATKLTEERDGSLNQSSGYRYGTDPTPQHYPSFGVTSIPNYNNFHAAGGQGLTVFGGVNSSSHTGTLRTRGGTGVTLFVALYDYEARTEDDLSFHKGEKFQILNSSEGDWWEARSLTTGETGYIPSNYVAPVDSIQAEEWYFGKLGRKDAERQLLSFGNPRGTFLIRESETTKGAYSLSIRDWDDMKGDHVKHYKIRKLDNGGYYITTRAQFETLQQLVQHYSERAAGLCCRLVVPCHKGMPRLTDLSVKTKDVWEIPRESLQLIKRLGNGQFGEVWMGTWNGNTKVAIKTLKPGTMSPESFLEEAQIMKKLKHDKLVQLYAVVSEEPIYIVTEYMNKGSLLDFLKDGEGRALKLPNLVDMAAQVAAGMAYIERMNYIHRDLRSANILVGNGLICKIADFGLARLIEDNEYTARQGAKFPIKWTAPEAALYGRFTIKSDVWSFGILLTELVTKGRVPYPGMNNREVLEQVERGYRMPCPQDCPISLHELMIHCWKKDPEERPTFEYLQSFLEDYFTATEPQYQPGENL

| Sequence | phosphorylation enrichment (Fes) | phosphorylation enrichment (Fyn) | phosphorylation enrichment (Jak2) | phosphorylation enrichment (EPHB1) | phosphorylation enrichment (AncSZ) | phosphorylation enrichment (EPHB2) | phosphorylation enrichment (MERTK) | phosphorylation enrichment (c-Src) | phosphorylation enrichment (Fer (mouse)) | phosphorylation enrichment (FGFR1) | phosphorylation enrichment (FGFR3) | phosphorylation enrichment (Hck) | phosphorylation enrichment (c-Abl (mouse)) | SH2 binding enrichment (Grb2 SH2) | SH2 binding enrichment (c-Src SH2) | SH2 binding enrichment (SHP2-C SH2) |
| --- | --- | --- | --- | --- | --- | --- | --- | --- | --- | --- | --- | --- | --- | --- | --- | --- |
| LDAFIYDAAVL [GRIN2A_Y730] | 1.53 | 9.56 | 0.827 | 2.63 | 1.18 | 3 | 3.04 | 6.55 | 20.3 | 0.879 | 0.868 | 7.32 | 6.28 | 1.14 | 0.519 | 0.935 |
| DYYDLYGGKKF [PTPN11_Y66_E69K] | 0.825 | 3.27 | 0.971 | 1.89 | 1.31 | 1.22 | 1.21 | 3.05 | 0.421 | 11.5 | 9.68 | 5.9 | 0.698 | 0.74 | 0.388 | 0.581 |
| SIKDKYVMALY [KCNH2_Y611_T613M] | 0.734 | 0.483 | 0.648 | 0.505 | 0.639 | 0.481 | 0.441 | 0.422 | 0.45 | 0.638 | 0.547 | 0.59 | 0.599 | 0.836 | 0.514 | 0.679 |
| RPFFLYVAFHN [SGSH_Y174_D179N] | 0.918 | 0.321 | 0.762 | 0.74 | 1.04 | 0.491 | 0.453 | 0.33 | 0.405 | 0.564 | 0.837 | 0.327 | 0.472 | 0.933 | 0.478 | 0.515 |
| PVFEVYPLLNC [GATA1_Y78_Q76E] | 1.86 | 0.418 | 1.48 | 0.742 | 1.64 | 0.756 | 0.559 | 0.758 | 0.533 | 2.54 | 1.9 | 0.597 | 1.03 | 0.945 | 0.551 | 0.73 |
| HHTNEYEYDEL [TGM1_Y134_D132N] | 1.17 | 0.952 | 1.18 | 0.497 | 1.32 | 0.585 | 0.594 | 0.901 | 0.736 | 0.69 | 0.813 | 0.489 | 1.58 | 0.902 | 1 | 0.676 |
| LLQAEYWHDPI [PPT1_Y185_V181L] | 1.96 | 0.975 | 1.55 | 0.682 | 1.89 | 0.511 | 0.726 | 0.864 | 0.74 | 4.99 | 3.92 | 0.667 | 1.62 | 0.805 | 1.27 | 0.803 |
| EVKEAYMGSVL [ACAT1_Y90_N93S] | 0.995 | 0.489 | 0.83 | 0.485 | 0.841 | 0.532 | 0.463 | 0.592 | 0.398 | 0.407 | 0.527 | 0.447 | 0.744 | 0.883 | 0.452 | 0.671 |
| LYEDCYLLGTS [ASS1_Y87_R86C] | 2.12 | 4.12 | 1.78 | 7.04 | 2.29 | 3.42 | 3.13 | 4.68 | 13.4 | 1.26 | 1.28 | 1.9 | 1.08 | 0.933 | 0.962 | 0.314 |
| PIYLYYLMDLS [ITGB2_Y131_D128Y] | 3.42 | 5.41 | 8.11 | 7.52 | 4.09 | 6.17 | 11.1 | 6.42 | 4.54 | 13.6 | 13.9 | 4.44 | 3.32 | 0.902 | 0.751 | 0.842 |
| FDDDDYDMDFV [BLM_Y296_T298M] | 1.23 | 0.613 | 0.945 | 0.761 | 1.29 | 0.612 | 0.438 | 0.57 | 0.561 | 0.55 | 0.815 | 0.56 | 0.68 | 0.795 | 0.485 | 0.606 |
| PADSGYPAYLG [ATP6V1A_Y374] | 1.51 | 1.05 | 0.823 | 1.77 | 1.18 | 0.468 | 0.417 | 0.592 | 0.798 | 0.755 | 0.892 | 0.735 | 1.14 | 1.11 | 0.614 | 0.62 |
| DDYDLYGGEKF [PTPN11_Y66_Y62D] | 1.1 | 1.7 | 0.963 | 0.915 | 1.51 | 2.85 | 0.439 | 2.07 | 0.957 | 0.507 | 0.681 | 2.25 | 0.871 | 0.76 | 0.553 | 0.59 |
| KIMVIYDGACQ [VWDE_Y1035_T1032M] | 1.69 | 0.885 | 1.83 | 1.3 | 1.35 | 1.11 | 0.519 | 0.796 | 0.897 | 0.687 | 1.07 | 1.49 | 0.965 | 0.776 | 0.455 | 0.597 |
| RLEGVYGNNID [PTEN_Y46_R47G] | 0.603 | 1.57 | 0.557 | 0.452 | 0.404 | 0.311 | 0.657 | 1.26 | 0.621 | 0.485 | 0.381 | 0.94 | 0.384 | 0.713 | 0.408 | 0.444 |
| DEFLEYRRIVG [FAM221A_Y20_YF] | 1.17 | 0.505 | 0.964 | 0.469 | 0.83 | 0.439 | 0.493 | 0.507 | 0.526 | 0.466 | 0.551 | 0.537 | 0.797 | 0.945 | 0.53 | 1 |
| EQSNPYMVLDI [ROCK2_Y1197] | 1.09 | 2.5 | 1.24 | 0.577 | 1.19 | 0.616 | 2.28 | 3.73 | 3.79 | 1.11 | 1.1 | 1.38 | 0.737 | 0.923 | 0.72 | 0.654 |

| Sequence | phosphorylation enrichment (Fes) | phosphorylation enrichment (Fyn) | phosphorylation enrichment (Jak2) | phosphorylation enrichment (EPHB1) | phosphorylation enrichment (AncSZ) | phosphorylation enrichment (EPHB2) | phosphorylation enrichment (MERTK) | phosphorylation enrichment (c-Src) | phosphorylation enrichment (Fer (mouse)) | phosphorylation enrichment (FGFR1) | phosphorylation enrichment (FGFR3) | phosphorylation enrichment (Hck) | phosphorylation enrichment (c-Abl (mouse)) | SH2 binding enrichment (Grb2 SH2) | SH2 binding enrichment (c-Src SH2) | SH2 binding enrichment (SHP2-C SH2) |
| --- | --- | --- | --- | --- | --- | --- | --- | --- | --- | --- | --- | --- | --- | --- | --- | --- |
| MFFSTYDRDND [FGB_Y408] | 1.05 | 0.426 | 1.03 | 0.541 | 0.849 | 0.578 | 0.408 | 0.589 | 0.501 | 0.673 | 0.601 | 0.511 | 0.84 | 0.845 | 0.778 | 1.03 |
| NGSKAYAYVHF [PABPC5_Y147_G146A] | 1.03 | 0.4 | 0.796 | 0.514 | 1.06 | 0.52 | 0.656 | 0.401 | 0.637 | 0.568 | 0.646 | 0.438 | 0.634 | 0.903 | 6.01 | 18.8 |
| RFLKDYGEFEV [GINS1_Y156_C152Y_YF] | 1.39 | 0.85 | 1.13 | 0.497 | 1.04 | 0.569 | 0.778 | 1.07 | 0.63 | 0.582 | 0.877 | 0.695 | 0.835 | 1.26 | 0.43 | 0.749 |
| DLTQDYEEWKR [ORC6_Y232] | 1.47 | 0.707 | 1.28 | 0.796 | 1.8 | 0.882 | 0.526 | 0.696 | 0.715 | 0.509 | 0.862 | 0.845 | 0.84 | 0.982 | 0.55 | 0.647 |
| DVLEFYNSKKT [PAK1_Y131] | 1.38 | 0.525 | 1.11 | 0.517 | 1.08 | 0.544 | 0.405 | 0.504 | 1.13 | 0.856 | 0.718 | 0.518 | 0.925 | 0.731 | 0.752 | 0.576 |
| HTVVSYAEVRA [CLOCK_Y378] | 1.23 | 0.897 | 0.779 | 0.627 | 1.12 | 0.809 | 0.509 | 0.742 | 0.52 | 0.62 | 0.599 | 0.899 | 0.781 | 0.721 | 3.25 | 27.9 |
| CTTIHYMFMCN [TP53_Y234_N235M_YF] | 1.22 | 0.445 | 1.02 | 0.608 | 1.05 | 0.668 | 0.367 | 0.38 | 0.555 | 0.526 | 0.659 | 0.552 | 0.673 | 1.38 | 1 | 1.51 |
| VGTKRYMAPKV [ACVRL1_Y375_E379K] | 0.456 | 0.301 | 0.482 | 0.274 | 0.377 | 0.282 | 0.424 | 0.304 | 0.443 | 0.391 | 0.372 | 0.327 | 0.625 | 1.19 | 0.632 | 1.44 |
| KQFWRYFAGNL [SLC25A4_Y112] | 1.03 | 0.32 | 1.04 | 0.777 | 0.944 | 0.53 | 0.542 | 0.507 | 0.488 | 0.461 | 0.598 | 0.449 | 0.764 | 1.09 | 0.899 | 0.972 |
| GTSLIYWTLFT [G6PC3_Y214] | 1.97 | 8.42 | 3 | 3.96 | 1.82 | 2.09 | 5.81 | 6.99 | 1.68 | 5.01 | 4.45 | 6.02 | 11.2 | 0.746 | 0.457 | 0.652 |
| WYQTKYEELQV [KRT6B_Y360_I365V] | 1.28 | 0.519 | 1.02 | 0.61 | 1.11 | 0.707 | 0.394 | 0.452 | 0.568 | 0.521 | 0.753 | 0.723 | 0.741 | 0.832 | 6.2 | 0.834 |
| SSNLFYRWLTA [CNGA3_Y169_YF] | 0.982 | 0.473 | 0.846 | 0.594 | 1.09 | 0.526 | 0.532 | 0.398 | 0.493 | 0.621 | 0.744 | 0.557 | 0.665 | 0.692 | 0.466 | 0.591 |
| GRSTYYWPRPR [GAGE12J_Y10] | 0.444 | 0.524 | 0.543 | 0.474 | 0.697 | 0.507 | 0.748 | 0.665 | 0.504 | 0.537 | 0.481 | 0.615 | 0.93 | 0.668 | 0.419 | 0.386 |
| ESFRLYPPVPQ [CYP4B1_Y377] | 0.704 | 0.457 | 0.536 | 0.416 | 0.62 | 0.477 | 0.404 | 0.391 | 0.378 | 0.342 | 0.491 | 0.415 | 0.553 | 0.829 | 0.464 | 0.713 |
| GSERDYTYEEL [EIF2S2_Y174] | 1.13 | 1.09 | 1.29 | 0.602 | 1.36 | 0.645 | 0.707 | 1.63 | 0.6 | 0.535 | 0.711 | 1.21 | 0.977 | 0.969 | 0.944 | 0.761 |
| FLNSSYINIST [IL23R_Y178_T175N_YF] | 0.746 | 0.438 | 0.663 | 0.338 | 0.652 | 0.368 | 0.415 | 0.317 | 0.367 | 0.464 | 0.676 | 0.471 | 0.383 | 25 | 4.35 | 1.69 |
